# According to patent US20110311475A1 (published 2011):
# T1: IL2 Receptor beta protein (Fc Chimera Active, Abcam plc) (human, UniProt P14784 27-240)
# T1 construct: In the assay it was coupled to DyLight 649 conjugated Protein A; also called IL-2Rβ subunit; human Interleukin-2 receptor beta (CD122); Fc part of the bought chimera not given
# T1 sequence (looked up): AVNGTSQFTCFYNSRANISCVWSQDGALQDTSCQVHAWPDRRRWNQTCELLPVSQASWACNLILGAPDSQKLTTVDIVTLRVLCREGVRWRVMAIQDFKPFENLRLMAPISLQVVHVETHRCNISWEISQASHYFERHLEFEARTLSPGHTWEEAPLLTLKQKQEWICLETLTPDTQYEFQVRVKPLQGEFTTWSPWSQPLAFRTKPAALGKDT
# T2: Recombinant Human IL-4 Rα Fc Chimera protein (R&D Systems) (human, UniProt P24394 26-231)
# T2 construct: In the assay it was coupled to DyLight 649 conjugated Protein A; also called IL-4Rα subunit; Fc part of the bought chimera not given
# T2 sequence (looked up): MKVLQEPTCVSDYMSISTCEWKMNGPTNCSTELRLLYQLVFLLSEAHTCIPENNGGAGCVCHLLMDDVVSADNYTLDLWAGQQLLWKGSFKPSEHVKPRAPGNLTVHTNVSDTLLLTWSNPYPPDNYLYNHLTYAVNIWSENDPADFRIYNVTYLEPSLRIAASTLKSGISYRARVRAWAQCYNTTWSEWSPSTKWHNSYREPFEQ
# Key:
# [1] = biological target: T1, IL2 Receptor beta protein (Fc Chimera …); experiment: bead-based flow cytometric immunoassay, receptor-Fc chimera/Protein A-DyLight 649 (FIG. 19C)
# Description: (§1) Both goat anti-human IL-21 and rabbit anti-human IL-21 antibodies were initially tested using a Western blot technique to confirm suitable detection of the IL-21 variant proteins with the predicted size. The success of antibody-to-bead conjugation was verified using PE Goat anti-Rabbit IgG Detector (BD Biosciences). To detect the receptor interaction of bead-captured IL-21 variants with the Interleukin-21 receptor proprietary subunit, the Interleukin-4 receptor alpha subunit, the Interleukin-2 receptor alpha or the Interleukin-2 receptor beta, appropriate receptor-Fc-chimera proteins were coupled with a Protein-A-fluorochrome complex suitable for flow cytometric evaluation. […] 50 μl of antibody-coated beads and serial dilutions of IL-21 variant proteins, with final concentrations ranging from 100 pg/ml to 1 μg/ml, were incubated together with the fluorescence conjugated receptor-chimera-Protein-A complexes in excess in 96-well plates for 3 h on a titer plate shaker. […] Bead particles were discriminated on the basis of size and fluorescence (see FIGS. 19A and B) on a BD FACSCanto II system with BD FACSDiva software (BD Biosciences). […]
# [2] = biological target: T2, Recombinant Human IL-4 Rα Fc Chimera …; experiment: bead-based flow cytometric immunoassay, receptor-Fc chimera/Protein A-DyLight 649 (FIG. 19D)
# Description: as §1
Binder,binding result [1],binding result [2]
"IL-21/IL-2 hybrid protein (ligand, also called IL-21 variant) QGQDRHMIRMRQLIDIVDQLKNYVNDLVPEFLPAPEDVETNCEWSAFSCFQKAQLKSANTGNNERIINVSISNINVIVLELKGSETTFMCDSYEKKPPKEFLERFKSLLQKMIHQHLSSRTHGSEDS",binds,
"IL-21/IL-4 hybrid protein (ligand, also called IL-21/IL-4 hybrid variant; IL-21/IL-4 variant protein) QGQDRHMITLQEIIKTLNSLTEQKTLVPEFLPAPEDVETNCEWSAFSCFQKAQLKSAQQFHRHKQLIRFLKRLDRNLWGLAGLNSCPSCDSYEKKPPKEFLERFKSLLQKMIHQHLSSRTHGSEDS",,binds
